Data on 64 variants can be found in the RNAGym collection of RNA variant scans (doi:10.7554/elife.80360).

B1: HDV Ribozyme (parent)
chain: GGCCGGCAUGGUCCCAGCCUCCUCGCUGGCGCCGGCUGGGCAACAUUCCGAGGGGACCGUCCCCUCGGUAAUGGCGAAUGGGACCCA

Variants of B1 are the subject of the data set. The data set can be described thus: self-cleavage, relative activity (ratio to wild type); higher = more cleavage; co-transcriptional.
For the variant GGCCGGCAUGGUCCCAGCCUCCUCGCUGGCGCCGGCUGGGCAAUAUUCCGAGGGGACCGUCCCCUCGGUAAUCGCGAAUGGGACCCA, the self-cleavage came out at 0.47. Under GGCCGGCAUGGUCCAAGCCUCCUCGCUGGCGCCGGCUGGGCAACAUUCCGAGGGGACCGUCCCCACGGUAAUGGCGAAUGGGACCCA stands 0.388.

For the variant GGCUGGCAUGGUCCCAGCCUCCUCGCUGGCGCCGGCUGGGCAACAUUCCGAAGGGACCGUCCCCUCGGUAAUGGCGAAUGGGACCCA, the self-cleavage is 0.443. On to GGCCGGCAUGGUCCCAGCCUCCUCGCUGGCGCCGGCUGGGCAACAUUCCGAGGGGACCGUCCCCUUGGUAAUGGCGAUUGGGACCCA, for which the self-cleavage was 0.309. As for UGCCGGCAUGGUCCCAGCCUCCUCGCUGGCGCCGGCUGGGCAACAUUCCGAGGGGACCGUCCCCUCGGUAAUGGCGAAUGGGACCGA, the self-cleavage was determined as 0.289. Next, GGCCGGCAUGGUCCCAGCCUCCUCGCUGGCGCCGGCUGGGAAACAUUCCGAGGGGACCGUCCCCUCGGUAAUGGCGAACGGGACCCA: 0.237; GGCCGGCAUGGUCCCAGCCUGCUCGCUGGCGCCGGCUGGGCAACAUUCCGAGGGGACCGUCCCCCCGGUAAUGGCGAAUGGGACCCA: 0.113; GGCCGGCAUGGUCCCAGCCUCCUCCCUGGCGCCGGCUGGGCAACAUUCCGAUGGGACCGUCCCCUCGGUAAUGGCGAAUGGGACCCA: 0.141. Under GGCCGGCAUGGUCCCAGCCUCCUCGCUGGCGCCGGCUCGGCAACAUUCCGAGGGGACCGUCCCCUCGGUAAGGGCGAAUGGGACCCA stands 0. For the variant CGCCGGCAUGGUCCCAGCCUCCUCGCUGGCGCCGGCUGGGCAACAUUCCGAGGGGACCGUCCCCUCGGUAAUGGCGAAUGGGACCAA, the self-cleavage came to 0.0978. For the variant GGCCGGCAUGGUCCCAGUCUCCUCGCUGGCGCCGGCUGGGCAACAUUCCGAGGGGACCGUUCCCUCGGUAAUGGCGAAUGGGACCCA, the self-cleavage was found to be 0.481.

For the variant GGCCGGCAUGGUCCCAGCCUCCUCGCUGGCGCCGGCUGGGCAACGUUCCGAGGGAACCGUCCCCUCGGUAAUGGCGAAUGGGACCCA, the self-cleavage was 1.08. GGCCGGCAUGGUCCCAGCCUCCUCGCUGUCGCAGGCUGGGCAACAUUCCGAGGGGACCGUCCCCUCGGUAAUGGCGAAUGGGACCCA: the self-cleavage is 0.0519. For the variant GGCCGGCAUGGUCCCAGCCUCCUCGCUGGCGCCGGCUGGACAACAUUCCGAGGGGACCGUCCCCUCGGUAAUGGCAAAUGGGACCCA, the self-cleavage was found to be 0.918. Under GGCCGGCAUGGUCCCAGCCUCCUCGCUGGCGCCGGCUGGGCAACAUUCCGAAGGGACCGUCCCCUCGGUAACGGCGAAUGGGACCCA stands 0.591.

In the case of GGCCGGCAUGGUCCCAGCCUCCUCGCUGGCACCGGCUGGCCAACAUUCCGAGGGGACCGUCCCCUCGGUAAUGGCGAAUGGGACCCA, the self-cleavage stood at 0.144. For the variant GGCCGGCUUGGUCCCAGCCUCCUCGCUGGCGCCGGCUGGGCAACAUUCCGAGGGGACCGUCCCCUCGGUAAUGGAGAAUGGGACCCA, the self-cleavage is 0. Next, GGCCGGCAUGGUCCCAGCCUCCUCGCUGGCCCCGGCUGGGCAACAUUCCGAGGGGACCGUCCCCUCGGUAAUGGUGAAUGGGACCCA: 0.111; GGCCGGCAGGCUCCCAGCCUCCUCGCUGGCGCCGGCUGGGCAACAUUCCGAGGGGACCGUCCCCUCGGUAAUGGCGAAUGGGACCCA: 0.594; GGCCGGCAUGGUCCCAGCCGCCUCGCUGACGCCGGCUGGGCAACAUUCCGAGGGGACCGUCCCCUCGGUAAUGGCGAAUGGGACCCA: 0.161. Under GGCCGGCAUGGUCCCAGCCUCCUCGCUGGAGCCGGCUGGGCACCAUUCCGAGGGGACCGUCCCCUCGGUAAUGGCGAAUGGGACCCA stands 0.0326; under GGCCGGCAUGGUCCCAACCUCCUCGCUGGCGCCGGCUGGGCAACAUUCCGAGGGGACCGUCCCCUCGGUAAUGGCGAAUGGGACUCA, 0.641; under GGCCGGCAUGGUCCCAGCCUCCUCGCUGGCGCCGGCUGGGCAACAUUCCGAGGGGAUCGUCCCCUCGGUAAUGGCGAAUAGGACCCA, 0.148. For GGCCGGCAUGGUCCCAGCCUCCUCGCUGCCGCCGGCUGGGGAACAUUCCGAGGGGACCGUCCCCUCGGUAAUGGCGAAUGGGACCCA, the self-cleavage came out at 0.229. Next, GGCCGGCAUGGUCCCAGCCUCCUCGCUGGCGGCGGCUGGGCAACAUUCCGAGGGGACCGUCCCCUCGGUAAUGCCGAAUGGGACCCA: 0.166; GGCCGGCAUGGUCCCAGCCUCCUCGCUGGCGCCGGCUGGGCAACAUUCCGAGGAAACCGUCCCCUCGGUAAUGGCGAAUGGGACCCA: 1.29; GGCCUGCAUGGUCCCAGCCUCCUCGCUGGCGCCGGCUGGGCAACAUUCCGAGGGGACCGUCCCCUCGGAAAUGGCGAAUGGGACCCA: 0.262. For GGCCGGCAUGGCCCCAGCCUCCUCGCUGGCGCCGGCUGGGCAACAUUCCGAGGGGACCGUCCCCUCGGCAAUGGCGAAUGGGACCCA, the self-cleavage is 0.391.

Turning to GGCCGGCAUGGUUCCAGCCUCCUCGCUGGCGCCGGCUGGGCAACAUUCCGAGGGGACCGUGCCCUCGGUAAUGGCGAAUGGGACCCA, the self-cleavage stood at 0.684.

With GGCCGGCAUGGUCUCAGCCUCCUCGCUGGCGCCGGCUGGGCAACAUUCCGACGGGACCGUCCCCUCGGUAAUGGCGAAUGGGACCCA, the self-cleavage was determined as 1.1. Under GGCCGGCAUGGUCCCAGCCUCCUCGCGGGCGCCGGCUGGGCAACCUUCCGAGGGGACCGUCCCCUCGGUAAUGGCGAAUGGGACCCA stands 0.26; under GGCCGGCAUGGUCCCAGCCUCCUCGCUGGCGCCGGCUGGGCAACAUCCCGAGGGGACAGUCCCCUCGGUAAUGGCGAAUGGGACCCA, 0.779; under GGCCGGCAUGGUCCCAGCCUCCUCGCUGGCGCCGGCUGGGCAACAUUCCGAGGGGACCGGCCCCUCGGUAAUGGCGAAUGGGAACCA, 0.752. Under GGCCGGCAUGGUCCCAGCCUCCUCGCUGGGGCCGGCUGGGCAACAUUCCGAGGGGACCGUCCCCUCGGUAAUGGCGAUUGGGACCCA stands 0.0678; under GGCCGGCAUGGUCCCAGCCUCCUCGCUGUCGCCGGCUGGGCAACAUUCCGAGGGGACCGUCCCCUCGCUAAUGGCGAAUGGGACCCA, 0.106; under GGCCGGCAUGGUCCCAGCCUCCUCGCUGGCGCCGGCUGGGCAACAUUCCGAGGGGACCGUCCCCUCGGCAAUGGCGAAUGGGACCGA, 1.05.

Regarding GGCCGGCAUGGUCCCAGCCUCCUCGCUGGCGCCGGCUGGGCAACAUUCCGAAGGGACCGUCCCCUCGGUAAUGGGGAAUGGGACCCA, the self-cleavage turned out to be 0.227. Next, GGCCGGCAUGGUCCCAGCCUCCUCGCUGGCGUCGGCUGGGCAACAUUCCGAGGGGACCGUCCCCUCGGUAAUGGCGAAUGGAACCCA: 0.354. With GGCCGGCAUGGUCCCAGCCUCCUCGCUCGCGCCGGCUGGGCGACAUUCCGAGGGGACCGUCCCCUCGGUAAUGGCGAAUGGGACCCA, the self-cleavage came to 0. As for GUCCCGCAUGGUCCCAGCCUCCUCGCUGGCGCCGGCUGGGCAACAUUCCGAGGGGACCGUCCCCUCGGUAAUGGCGAAUGGGACCCA, the self-cleavage was 0. Next, GGCCGGCUUGGUCCCAGCCUCCUCGCUGGCGCCGGCUGGGCAACAUACCGAGGGGACCGUCCCCUCGGUAAUGGCGAAUGGGACCCA: 0.767; GGCCGGCAUGGUCCCAGCCUCCACGCUGGCCCCGGCUGGGCAACAUUCCGAGGGGACCGUCCCCUCGGUAAUGGCGAAUGGGACCCA: 0.44; GGCCGGCAUGGUCCCAGCCUCCUCGCUGGCGCCGGCUGGGCAACAUUCCGAGCGGACCGUCCCCUUGGUAAUGGCGAAUGGGACCCA: 0.918. As to GACCGGCAUGGUCCCAGCCUCCUCGCUGGCGCCGGCUGGGCAACAUUCCGAGGGGACCGUCCCCUCGGUAAUGACGAAUGGGACCCA, the self-cleavage worked out at 0.0457.

In the case of GCCCGGCAUGGUCCCAGCCUCCGCGCUGGCGCCGGCUGGGCAACAUUCCGAGGGGACCGUCCCCUCGGUAAUGGCGAAUGGGACCCA, the self-cleavage is 0.0268. Next, GGCCGGCAUGGUCCCAGCCCCCUCGCUGGCGACGGCUGGGCAACAUUCCGAGGGGACCGUCCCCUCGGUAAUGGCGAAUGGGACCCA: 0.185.

GGCCGGCAUGGUCCCAGCCUCCUCGCUGGCGCCGGCUGGGCAACGUUCCGAGGGGACCGUCCCCUCGGUCAUGGCGAAUGGGACCCA: the self-cleavage was 0.88. Next, GGCCGGCAUGGUCCCAGCCUCCUCGCUGGCGCCGGCUGGGCAACGUUCCGAGGGGACCGUCCCCUCGGUAAUGGUGAAUGGGACCCA: 0.208. With GGCCGGCAUGGUCCCAGCGUCCUCGCUGGCGCCGGCUGGGCAACAUUCCGAGGGGACCGUCCCCUCGGUAAUGGCUAAUGGGACCCA, the self-cleavage worked out at 0.0791. Consider GGCCGGCAUGGUCCCAGCCUCCUCGCUGGCGCCGGCUGGGCAAAAUUCCGAGGGGACCGUCACCUCGGUAAUGGCGAAUGGGACCCA, for which the self-cleavage is 0.708. For GGCCGGCAUGGUCCCUGCUUCCUCGCUGGCGCCGGCUGGGCAACAUUCCGAGGGGACCGUCCCCUCGGUAAUGGCGAAUGGGACCCA, the self-cleavage turned out to be 0.122. With GGCCGGCGUGGUCCCAGCCUCCUCGCUGGUGCCGGCUGGGCAACAUUCCGAGGGGACCGUCCCCUCGGUAAUGGCGAAUGGGACCCA, the self-cleavage turned out to be 0.806.

As to GGCCGGCAUGGUCCCAGCCUCCUCGCUGGCGCCGGCUGGGCAACAUUCCGAGGGUACCGUCCCCUCGGUAAUGGCGAAUGGGGCCCA, the self-cleavage was determined as 0.842. Next, GGCCGGCAUGGUCCCAGCCUCCUCGCUGGCGCCGGCUGGGCAACAUUCCGAGGGGAUCGUCCCCUCGGUAAUGGCGAAUGAGACCCA: 0.415. Under GGACGGCAUGGUCCCAUCCUCCUCGCUGGCGCCGGCUGGGCAACAUUCCGAGGGGACCGUCCCCUCGGUAAUGGCGAAUGGGACCCA stands 0.0665; under GUCCGGCAUGGUCCCAGCCUCCUCGCUGGCGCCGGCUGGGCAACAUGCCGAGGGGACCGUCCCCUCGGUAAUGGCGAAUGGGACCCA, 0.119; under GGCCGGAAUGGUCCCAGCCUCCUCGCUGGCGCCGGCUGGGCAACAUUCCGAGGGGACCGUCCCCUCGGUAAUGGCGAAUGGAACCCA, 0.0875. On to GGCCGGCAUGGUUCCAGCCUCCUCGCUGGCGCCGGCUGGGCAACAUUCCGAGGGGACAGUCCCCUCGGUAAUGGCGAAUGGGACCCA, for which the self-cleavage amounted to 0.665. Next, GGCGGGCAUGGUCCCAGCCUCCUCGCUGGCGCCGGCUGGGCAACAUUCGGAGGGGACCGUCCCCUCGGUAAUGGCGAAUGGGACCCA: 0.504; GGCCGGCAUGGUCCCAGCCUCCUCGCUGGCGCCGGCGGGGCAACAUUCCGAGGGGACCGUCCCCUCGGUAAUGGCGAUUGGGACCCA: 0.

For the variant GGCCGGCAUGGUCCCAGCCUCCUCGCUGGAGCCGGCUGGCCAACAUUCCGAGGGGACCGUCCCCUCGGUAAUGGCGAAUGGGACCCA, the self-cleavage came to 0.0277. On to GGCCGGCAUGGUCCCAGCCUCCUCGCUGGCGCCGGCUGGGCAACAUUCCGAGGGGACCGUCCCCUCGGUAACGGCGAAUGGGACCUA, for which the self-cleavage turned out to be 0.57. Next, GGCCGGCAUGGUCCUAGCCUCCUCGCUGGCGCCGGCCGGGCAACAUUCCGAGGGGACCGUCCCCUCGGUAAUGGCGAAUGGGACCCA: 0.923; GGCCGGCAUGGUCCCAGCCUCCUCGCUGGCGCCAGCUGGGCAACAUUCCGAGGGGACCGUCCCCUCGGUAAUGGCGCAUGGGACCCA: 0.095.
